Literature values in publication PMC2875293.

Target: Sep15 (Homo sapiens) (UniProt O60613)
Sequence (O60613 32-165): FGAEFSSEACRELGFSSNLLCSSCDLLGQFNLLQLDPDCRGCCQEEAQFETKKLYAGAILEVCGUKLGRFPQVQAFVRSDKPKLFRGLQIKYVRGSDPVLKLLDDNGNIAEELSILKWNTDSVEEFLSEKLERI

Chain of GT1 (UDP-glucose:glycoprotein glucosyltransferase 1) (Q9NYU2 43-1555): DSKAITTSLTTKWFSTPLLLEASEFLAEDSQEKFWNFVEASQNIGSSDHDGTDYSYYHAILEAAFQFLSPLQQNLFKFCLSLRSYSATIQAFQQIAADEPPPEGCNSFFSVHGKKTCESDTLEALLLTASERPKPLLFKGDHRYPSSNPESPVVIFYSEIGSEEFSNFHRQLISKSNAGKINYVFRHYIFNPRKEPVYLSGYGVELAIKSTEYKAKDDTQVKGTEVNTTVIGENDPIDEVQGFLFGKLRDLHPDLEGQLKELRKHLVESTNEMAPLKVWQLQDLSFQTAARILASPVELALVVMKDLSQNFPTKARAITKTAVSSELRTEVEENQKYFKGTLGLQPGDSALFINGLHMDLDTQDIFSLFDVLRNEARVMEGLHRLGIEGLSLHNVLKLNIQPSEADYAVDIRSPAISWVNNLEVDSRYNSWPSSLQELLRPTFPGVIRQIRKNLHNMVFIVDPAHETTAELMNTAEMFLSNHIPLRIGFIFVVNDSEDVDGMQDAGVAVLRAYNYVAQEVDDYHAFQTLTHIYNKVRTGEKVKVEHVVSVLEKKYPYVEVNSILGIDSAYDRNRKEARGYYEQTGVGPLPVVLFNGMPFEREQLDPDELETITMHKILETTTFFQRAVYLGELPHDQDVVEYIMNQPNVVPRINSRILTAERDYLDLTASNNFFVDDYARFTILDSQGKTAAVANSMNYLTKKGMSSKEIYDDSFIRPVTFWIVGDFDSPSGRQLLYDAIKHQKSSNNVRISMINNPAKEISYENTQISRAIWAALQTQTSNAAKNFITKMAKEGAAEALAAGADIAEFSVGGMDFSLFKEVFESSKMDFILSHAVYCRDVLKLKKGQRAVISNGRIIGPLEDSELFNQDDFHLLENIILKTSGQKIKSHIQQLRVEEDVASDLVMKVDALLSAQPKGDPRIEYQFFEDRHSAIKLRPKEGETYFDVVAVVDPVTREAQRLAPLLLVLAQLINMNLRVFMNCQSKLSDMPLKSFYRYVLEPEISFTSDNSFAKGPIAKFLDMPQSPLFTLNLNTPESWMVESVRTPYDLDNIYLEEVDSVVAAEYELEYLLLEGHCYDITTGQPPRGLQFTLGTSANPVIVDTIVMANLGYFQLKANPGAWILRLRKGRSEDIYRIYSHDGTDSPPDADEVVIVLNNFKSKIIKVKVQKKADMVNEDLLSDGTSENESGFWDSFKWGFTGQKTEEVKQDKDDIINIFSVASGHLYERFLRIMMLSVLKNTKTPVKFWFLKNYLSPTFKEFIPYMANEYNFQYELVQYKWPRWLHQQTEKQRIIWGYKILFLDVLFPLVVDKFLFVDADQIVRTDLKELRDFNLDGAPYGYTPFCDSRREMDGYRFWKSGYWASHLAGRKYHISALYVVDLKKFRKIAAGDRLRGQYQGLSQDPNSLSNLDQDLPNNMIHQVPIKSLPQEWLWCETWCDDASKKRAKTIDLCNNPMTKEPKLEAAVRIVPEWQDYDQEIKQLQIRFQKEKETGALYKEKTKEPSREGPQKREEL

Kd: < 0.02 µM
Substance: GT1 (UDP-glucose:glycoprotein glucosyltransferase 1) (from UniProt Q9NYU2)
